From the RNAGym collection of RNA variant scans (doi:10.7554/elife.80360)

B1: HDV Ribozyme (parent)
chain: GGCCGGCAUGGUCCCAGCCUCCUCGCUGGCGCCGGCUGGGCAACAUUCCGAGGGGACCGUCCCCUCGGUAAUGGCGAAUGGGACCCA

Variants of: B1
Assay: self-cleavage, relative activity (ratio to wild type); higher = more cleavage; co-transcriptional

| Variant | self-cleavage |
| --- | --- |
| G2U C18A | 0 |
| G2U C21A | 0.0437 |
| G2U C21U | 0.0542 |
| G2U C26G | 0.0627 |
| G2U C30A | 0.0396 |
| G2U C32G | 0 |
| G2U C36A | 0.366 |
| G2U C36U | 0.0308 |
| G2U C48A | 0.0378 |
| G2U C57G | 0.109 |
| G2U C58A | 0.0494 |
| G2U C58G | 0 |
| G2U C61U | 0.103 |
| G2U C62U | 0.0314 |
| G2U C66A | 0.0525 |
| G2U C75U | 0.021 |
| G2U C84G | 0.0213 |
| G2U C85G | 0.0966 |
| G2U G5A | 0.0171 |
| G2U G5U | 0.0163 |
| G2U G6U | 0.0621 |
| G2U G11A | 0.0304 |
| G2U G11C | 0.0314 |
| G2U G11U | 0.0529 |

| Variant | self-cleavage |
| --- | --- |
| G2U G25U | 0.0449 |
| G2U G28A | 0.0164 |
| G2U G29U | 0.0712 |
| G2U G35C | 0.016 |
| G2U G39C | 0.0125 |
| G2U G53U | 0.0256 |
| G2U G54U | 0.0589 |
| G2U G59C | 0.0323 |
| G2U G68C | 0.0339 |
| G2U G73U | 0.0361 |
| G2U G74A | 0.0163 |
| G2U G74U | 0.056 |
| G2U G81C | 0.0779 |
| G2U G82U | 0.0171 |
| G2U U9A | 0.0237 |
| G2U U20A | 0.0563 |
| G2U U20C | 0 |
| G2U U27G | 0.0791 |
| G2U U69A | 0.0222 |
| G2U U69G | 0.0475 |
| G2U U72G | 0 |
| G2U U79C | 0.0434 |
| C3A A42C | 0.162 |
| C3A A51U | 0.599 |

| Variant | self-cleavage |
| --- | --- |
| C3A A56U | 0.71 |
| C3A A70G | 0.686 |
| C3A A71C | 0.105 |
| C3A A78C | 0.0785 |
| C3A A78G | 0.119 |
| C3A A83C | 0.177 |
| C3A A87C | 0.515 |
| C3A A87G | 0.378 |
| C3A C4A | 0.0542 |
| C3A C4U | 0.0341 |
| C3A C7A | 0.044 |
| C3A C7G | 0.0223 |
| C3A C13G | 0.0396 |
| C3A C13U | 0.213 |
| C3A C18G | 0 |
| C3A C21G | 0.0115 |
| C3A C22G | 0.0631 |
| C3A C26A | 0.795 |
| C3A C32A | 0.0545 |
| C3A C33A | 0.0698 |
| C3A C36G | 0.0608 |
| C3A C44A | 0.103 |
| C3A C44G | 0.0615 |
| C3A C61A | 0.596 |

| Variant | self-cleavage |
| --- | --- |
| C3A C62A | 0.511 |
| C3A C64A | 0.564 |
| C3A C66G | 0.508 |
| C3A C66U | 0.549 |
| C3A C75G | 0.0308 |
| C3A C85U | 0.626 |
| C3A G5C | 0.0339 |
| C3A G25A | 0.0658 |
| C3A G28C | 0.0275 |
| C3A G29A | 0.012 |
| C3A G35C | 0.604 |
| C3A G38A | 0.124 |
| C3A G38U | 0.0471 |
| C3A G39C | 0.0196 |
| C3A G52A | 0.699 |
| C3A G52C | 0.676 |
| C3A G54U | 0.453 |
| C3A G55C | 0.642 |
| C3A G55U | 0.563 |
| C3A G59U | 0.755 |
| C3A G68A | 0.408 |
| C3A G73A | 0.152 |
| C3A G73C | 0.0755 |
| C3A G74C | 0.0369 |

| Variant | self-cleavage |
| --- | --- |
| C3A G76A | 0.783 |
| C3A G80C | 0.111 |
| C3A G81U | 0.107 |
| C3A G82A | 0.0811 |
| C3A U9G | 0.985 |
| C3A U23A | 0.475 |
| C3A U27A | 0.306 |
| C3A U27G | 0.322 |
| C3A U37A | 0.122 |
| C3A U46C | 0.173 |
| C3A U60A | 0.611 |
| C3G A8G | 0.767 |
| C3G A8U | 0.376 |
| C3G A42C | 0.128 |
| C3G A43G | 0.125 |
| C3G A51C | 0.779 |
| C3G A51U | 0.768 |
| C3G A56C | 0.681 |
| C3G A56G | 0.692 |
| C3G A70C | 0.508 |
| C3G A78C | 0.134 |
| C3G A83G | 0.289 |
| C3G A87G | 0.708 |
| C3G C4U | 0.0171 |

| Variant | self-cleavage |
| --- | --- |
| C3G C7G | 0.0244 |
| C3G C7U | 0.226 |
| C3G C15A | 0.293 |
| C3G C15G | 0.266 |
| C3G C26A | 0.669 |
| C3G C26U | 1.2 |
| C3G C41A | 0.217 |
| C3G C41U | 0.547 |
| C3G C44U | 0.156 |
| C3G C49G | 0.523 |
| C3G C62U | 0.822 |
| C3G C75U | 0.0863 |
| C3G C86U | 0.885 |
| C3G G6A | 0.0923 |
| C3G G10U | 0.193 |
| C3G G11A | 0.144 |
| C3G G11C | 0.225 |
| C3G G17C | 0.0941 |
| C3G G28C | 0.107 |
| C3G G29U | 0.0656 |
| C3G G35C | 1.48 |
| C3G G50C | 0.475 |
| C3G G52C | 0.658 |
| C3G G52U | 0.691 |

| Variant | self-cleavage |
| --- | --- |
| C3G G53A | 0.742 |
| C3G G53U | 0.549 |
| C3G G55C | 0.682 |
| C3G G59C | 0.903 |
| C3G G67U | 0.626 |
| C3G G74C | 0.0779 |
| C3G G74U | 0.189 |
| C3G G81A | 0.201 |
| C3G G81C | 0.0831 |
| C3G G81U | 0.185 |
| C3G U12C | 0 |
| C3G U20A | 0.0755 |
| C3G U20G | 0 |
| C3G U27G | 0.479 |
| C3G U65C | 0.817 |
| C3G U69G | 0.658 |
| C3G U79A | 0.491 |
| C3U A8C | 0.269 |
| C3U A16U | 0.831 |
| C3U A42G | 0.483 |
| C3U A42U | 0.339 |
| C3U A45C | 0.43 |
| C3U A45G | 0.607 |
